From ChEMBL document CHEMBL2074118, “Effects of tacrolimus and cyclosporin A on peptide transporter PEPT1 in Caco-2 cells” (Pharm Res, 2001) come the findings set out here.

Substrate in this data set: CN(CC(=O)O)C(=O)CN
Description: TP_TRANSPORTER: uptake in Caco-2 cells. It counts as functional, cell-based.

B1: Solute carrier family 15 member 1 (Homo sapiens), P46059 (protein)
chain: MGMSKSHSFFGYPLSIFFIVVNEFCERFSYYGMRAILILYFTNFISWDDNLSTAIYHTFVALCYLTPILGALIADSWLGKFKTIVSLSIVYTIGQAVTSVSSINDLTDHNHDGTPDSLPVHVVLSLIGLALIALGTGGIKPCVSAFGGDQFEEGQEKQRNRFFSIFYLAINAGSLLSTIITPMLRVQQCGIHSKQACYPLAFGVPAALMAVALIVFVLGSGMYKKFKPQGNIMGKVAKCIGFAIKNRFRHRSKAFPKREHWLDWAKEKYDERLISQIKMVTRVMFLYIPLPMFWALFDQQGSRWTLQATTMSGKIGALEIQPDQMQTVNAILIVIMVPIFDAVLYPLIAKCGFNFTSLKKMAVGMVLASMAFVVAAIVQVEIDKTLPVFPKGNEVQIKVLNIGNNTMNISLPGEMVTLGPMSQTNAFMTFDVNKLTRINISSPGSPVTAVTDDFKQGQRHTLLVWAPNHYQVVKDGLNQKPEKGENGIRFVNTFNELITITMSGKVYANISSYNASTYQFFPSGIKGFTISSTEIPPQCQPNFNTFYLEFGSAYTYIVQRKNDSCPEVKVFEDISANTVNMALQIPQYFLLTCGEVVFSVTGLEFSYSQAPSNMKSVLQAGWLLTVAVGNIIVLIVAGAGQFSKQWAEYILFAALLLVVCVIFAIMARFYTYINPAEIEAQFDEDEKKNRLEKSNPYFMSGANSQKQM
The Km is the substrate concentration at which the rate is half of its maximum. On to B1, for which the Michaelis-Menten constant (Km) worked out at 830 µM.
